± gives the standard deviation.

We go through 72 sequences from the supplement of paper PMC10567573.

This series in a line: protein stability index of a GFP-peptide fusion (GPS, HEK-293T) (PSI 1-6); higher = more stable.
Where [1] appears, read: treatment: DMSO, c terminus: native.
Where [2] appears, read: treatment: MLN4924 1 uM, 8 h, c terminus: native.
Setting [3] is: treatment: DMSO, c terminus: a fixed tail appended.
The mark [4] stands for this setting: treatment: MLN4924 1 uM, 8 h, c terminus: a fixed tail appended.
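Further: 24-mer peptide tiles fused after GFP, lentivirally expressed, FACS-sorted into six equal bins by GFP/DsRed ratio, decoded by Illumina sequencing, PSI is the read-weighted mean bin number.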

Regarding AAAHASVDIKDVLDFYKQWKEIG [SMG5], the protein stability index under setting [1] is 3.45 ± 0.3 and the protein stability index under setting [2] worked out at 3.54 ± 0.55.
AADGETTATEELEKTQDDLMKHQT [EPB41L3]: the protein stability index stood at 5.62 ± 0.14 under setting [3] and 5.64 ± 0.14 under setting [4].
As for AAEERALFTDRMATRSTTQSNRTS [WEE1], the protein stability index by setting is: under setting [3], 5.1 ± 0.2; under setting [4], 5.17 ± 0.21.
For AAEMYQRGRAVLREAGFHQYEVSN [RSAD1], the protein stability index runs as follows: under setting [3], 3.32 ± 0.3; under setting [4], 3.29 ± 0.24.
AAKARDTGILIFAIGVGQVDFNTL [MATN2] had a protein stability index under setting [3] of 2.58 ± 1.1 and a protein stability index under setting [4] of 3.16 ± 1.
As for AAPFRFVARPVRFPREHQFFEDGD [ZNF511], the protein stability index worked out at 2.85 ± 0.56 under setting [3] and 3.28 ± 0.62 under setting [4].
In the case of AARLLRALSSFREESRFCDAHLVL [GAN], the protein stability index is, setting by setting: under setting [3], 2.41 ± 0.65; under setting [4], 2.02 ± 0.27.
Consider AATKQEGMEGLLGTLVQLLGSDDI [CTNNB1], for which the protein stability index runs as follows: under setting [3], 2.63 ± 0.23; under setting [4], 2.71 ± 0.58.
In the case of ACRVTELQQQPLCTSVNTIYDNAV [LRRC59], the protein stability index under setting [3] was 2.68 ± 0.4 and the protein stability index under setting [4] came out at 2.61 ± 0.25.
For ACSAWLCPGLRLPGSLAGRRAGPA [AUH], the protein stability index by setting is: under setting [3], 2.2 ± 0.31; under setting [4], 2.04 ± 0.9.
As for ADAFHHQVHDDDLLSSSEEECKDR [EMD], the protein stability index is, setting by setting: under setting [3], 5.66 ± 0.14; under setting [4], 5.66 ± 0.17.
As to ADYSAALDPAYTTLEFENVQVLTM [HNF4A], the protein stability index runs as follows: under setting [3], 2.75 ± 0.25; under setting [4], 2.39 ± 0.32.
The matching figures for AEEAEDHGRIPDPDDFVPPVPPPS [FAM189A2]: 5.52 ± 0.24 and 5.51 ± 0.06.
As for AEFIESGQYRANEGTSSIVMEIQK [TAF7L], the protein stability index by setting is: under setting [3], 4.23 ± 0.24; under setting [4], 4.45 ± 0.32.
For AEGDSEGLSQGLVDREKGLSAEPG [CHGA] the same measures were 5.49 ± 0.23 and 5.49 ± 0.4.
Consider AEMSRVSIRILDELVLPFQELQID [HNF4A], for which the protein stability index under setting [3] turned out to be 2.67 ± 0.35 and the protein stability index under setting [4] was 2.74 ± 0.23.
Take AERLRAELLDLKAGGFSIRNQKGE [MYORG]: the protein stability index is, setting by setting: under setting [3], 4.1 ± 0.26; under setting [4], 4.24 ± 0.29.
Take AEVWVSGTIFIRNVLLFKKQNPGK [RETREG3]: the protein stability index is, setting by setting: under setting [3], 2.68 ± 0.54; under setting [4], 2.49 ± 0.35.
For AFVVYLETETLVTREAVTEILGIE [TSN], the protein stability index is, setting by setting: under setting [3], 2.58 ± 0.6; under setting [4], 2.52 ± 0.7.
As for AGDRFLEALGFSWHDTCFVCAICQ [PDLIM7], the protein stability index is, setting by setting: under setting [3], 2.32 ± 0.4; under setting [4], 2.52 ± 0.28.
For the sequence AGEDNDDLIDNLKEAQYIRTERVE [PCMTD1], the protein stability index reads like this: under setting [3], 5.08 ± 0.18; under setting [4], 5.15 ± 0.26.
As to AGFSPDCIMDDAINILQNEKSHQV [INTS4], the protein stability index reads like this: under setting [3], 4.13 ± 0.12; under setting [4], 4.17 ± 0.18.
In the case of AGSCRLGSAGGLGSTLGGSSYSSC [KRT17], the protein stability index amounted to 2.22 ± 0.3 under setting [3] and 2.27 ± 0.31 under setting [4].
For AGVLTIALPVPVIVSNFNYFYHRE [KCNA4] the same measures were 2.6 ± 0.21 and 2.84 ± 0.79.
For AIGGTYLGPAFRGLKGRTLYPAVS [SPSB2] the same measures were 2.51 ± 0.16 and 2.69 ± 0.19.
Regarding AIVRKCRQKGTGKEYAAKFIKKRR [DAPK3], the protein stability index by setting is: under setting [3], 3.45 ± 0.24; under setting [4], 3.81 ± 0.32.
On to AIVSCTPVHLIDKLPLPVTIKSHL [RAB40C], for which the protein stability index was 2.18 ± 0.24 under setting [3] and 2.08 ± 0.19 under setting [4].
For AKRLLDADDAAAVAAKCPRLSECS [TRIB1], the protein stability index turned out to be 4 ± 0.51 under setting [3] and 4.11 ± 0.42 under setting [4].
Regarding AKTFHLVNPNGQKQQLVDAFLKLA [FAN1], the protein stability index by setting is: under setting [3], 2 ± 0.36; under setting [4], 2.05 ± 0.17.
The matching figures for ALGNLVEGMDFHRFYFENLLAKNS [CAMK2B]: 2.19 ± 0.24 and 2.35 ± 0.079.
With ALLNDHIYVVGGFDGTAHLSSVEA [KLHL12], the protein stability index was 2.68 ± 0.32 under setting [3] and 3 ± 0.38 under setting [4].
For ALRAQRASSNVFSNFEQTQIQEFK [MYL5] the same measures were 4.07 ± 0.27 and 3.93 ± 0.23.
For ALREENRMLSKENKILQVFWEEHK [CBY2] the same measures were 3.19 ± 0.12 and 3.28 ± 0.3.
As for AMAIINGSLYVFGGTTGYIYSTDL [KLHDC10], the protein stability index stood at 3.16 ± 0.2 under setting [3] and 2.74 ± 0.33 under setting [4].
With ANAEDAQEFSDVERAIETLIKNFH [S100A14], the protein stability index was 3.39 ± 0.43 under setting [3] and 3.94 ± 0.74 under setting [4].
APAGDKGFQPPSPSLRPRPASSIS [DMRTC1] displayed a protein stability index under setting [3] of 4.61 ± 0.15 and a protein stability index under setting [4] of 4.57 ± 0.26.
For AQNDLDISRIKRGNTTLESTDTL [P2RY14], the protein stability index is, setting by setting: under setting [1], 5.26 ± 0.17; under setting [2], 5.25 ± 0.22.
Turning to AQTLHHKSCYNGRFQLLYVACGMV [DNAAF3], the protein stability index by setting is: under setting [3], 2.94 ± 0.63; under setting [4], 2.39 ± 0.72.
Regarding ARKGKGAFCNGQKLQVSQQEDITK [IMPA1], the protein stability index under setting [3] worked out at 4.46 ± 0.18 and the protein stability index under setting [4] was determined as 4.67 ± 0.18.
In the case of ARPWTRDSASLPRKPSVPWQRQMD [RASAL3], the protein stability index was determined as 2.73 ± 0.22 under setting [3] and 2.94 ± 0.42 under setting [4].
Take ARSRALRRRWCPAGIMLLALVCLL [SPACA3]: the protein stability index by setting is: under setting [3], 2.23 ± 0.29; under setting [4], 2.23 ± 0.19.
In the case of ASAPTTPCQKSPNGVRVFPPAMPP [TRIM9], the protein stability index is, setting by setting: under setting [3], 4.14 ± 0.25; under setting [4], 4.2 ± 0.17.
As to ASGSFPSQVTATSGNGDFGDWSAF [CLINT1], the protein stability index under setting [3] was 3.4 ± 0.23 and the protein stability index under setting [4] was 3.87 ± 0.12.
Regarding ASSSRSVRTTRGKRKRVDVEESEA [LMNB1], the protein stability index reads like this: under setting [3], 5.22 ± 0.39; under setting [4], 5.49 ± 0.29.
ATIHGAIRLVCSRGNRLKTTSWGL [SCNN1D] showed a protein stability index under setting [3] of 2.46 ± 0.7 and a protein stability index under setting [4] of 2.18 ± 0.24.
For the sequence AVKKFVESEDDPVVKKIALREIRM [CDKL4], the protein stability index by setting is: under setting [3], 2.52 ± 0.25; under setting [4], 2.98 ± 0.26.
In turn, AVNSGGPLESIDHSVTGFLCEPDP [ALG2] gave a protein stability index under setting [3] of 4.82 ± 0.21 and a protein stability index under setting [4] of 4.91 ± 0.22.
In the case of AVPHPPPSTPIKLEEGDGCAREYL [ADD1], the protein stability index under setting [3] was 4.16 ± 0.35 and the protein stability index under setting [4] amounted to 4.42 ± 0.23.
For AWLNYPCFKNWDGSPVSSWILLAE [OAS1], the protein stability index reads like this: under setting [3], 2.58 ± 0.34; under setting [4], 2.3 ± 0.23.
Take AYDFPSPEWDTVTPEAKDLINKML [CAMK2A]: the protein stability index is, setting by setting: under setting [3], 3.24 ± 0.24; under setting [4], 3.58 ± 0.34.
For AYPLELQGQPDPAPRPGPPAGTPP [MOSPD3] the same measures were 5.14 ± 0.23 and 5.01 ± 0.14.
For AYQHSGHLESKDINQEELRALEEV [C10orf62] the same measures were 5.41 ± 0.29 and 5.4 ± 0.17.
With CAKLDSCALGDHGCEHSCVSSEDS [MATN2], the protein stability index reads like this: under setting [3], 4.91 ± 0.35; under setting [4], 4.99 ± 0.38.
CDELELHQRFLREGRFWKSKNEDR [ZMYND11]: the protein stability index is, setting by setting: under setting [3], 4.29 ± 0.17; under setting [4], 4.31 ± 0.36.
Take CDWLRATGFPQYAQLYEDFLFPID [DLC1]: the protein stability index by setting is: under setting [3], 2.31 ± 0.45; under setting [4], 2.26 ± 0.24.
For the sequence CEVPTCSLCKVFGAHKDCQVAPLT [TRIM55], the protein stability index is, setting by setting: under setting [3], 3.58 ± 0.2; under setting [4], 3.7 ± 0.25.
As for CFEASDCKESSPMPVICGPEENYP [NANOGP8], the protein stability index by setting is: under setting [3], 3.98 ± 0.32; under setting [4], 4.24 ± 0.26.
For the sequence CGSKACRRLFGPVDSEQLRRDCDA [CDKN1A], the protein stability index is, setting by setting: under setting [3], 3.18 ± 0.2; under setting [4], 3.23 ± 0.093.
CIPATVRSSFANQGEICLCTSRIF [ALDH8A1]: the protein stability index reads like this: under setting [3], 2.28 ± 0.52; under setting [4], 2.38 ± 0.21.
For CLKVGMRREAVQRGRMPPTQPTHG [NR2F2] the same measures were 3.59 ± 0.27 and 3.71 ± 0.32.
On to CLRCWDQRTIMKPLEYQFKSQIMS [TLE6], for which the protein stability index reads like this: under setting [3], 2.14 ± 0.27; under setting [4], 2.47 ± 0.48.
In the case of CPSSPKQIHLDVDNDRTTPSDLDS [DLC1], the protein stability index was 5.52 ± 0.1 under setting [3] and 5.55 ± 0.14 under setting [4].
CRRSIRSALGRQRLQDISSLPLPQ [SPSB4]: the protein stability index came out at 3.03 ± 0.38 under setting [3] and 3.33 ± 0.43 under setting [4].
As for CRYATQLQQIQGLIGGLEAQLSEL [KRT15], the protein stability index runs as follows: under setting [3], 2.23 ± 0.066; under setting [4], 2.33 ± 0.18.
The matching figures for CSCQADPRHQGHRVQPVKDTAHDF [TRIM35]: 3.42 ± 0.31 and 3.56 ± 0.14.
As for CSITGDSSRVIAASYDKTVRAWDL [WDR88], the protein stability index by setting is: under setting [3], 2.57 ± 0.2; under setting [4], 2.6 ± 0.2.
For CTRFTDEYQLYEDIGKGAFSVVRR [CAMK2B] the same measures were 2.84 ± 0.35 and 2.85 ± 0.54.
Turning to DALPGQSKRLAVPCKLEKMRILAH [TLE6], the protein stability index came to 2.39 ± 0.18 under setting [3] and 2.4 ± 0.24 under setting [4].
As to DCILRDTSEDLRLQCDAVNLAFGR [TEKT4], the protein stability index was found to be 3.4 ± 0.13 under setting [3] and 3.48 ± 0.19 under setting [4].
Turning to DDDDNLPQLKKESELPFVPNYLAN [ANKRD40], the protein stability index by setting is: under setting [3], 4.77 ± 0.12; under setting [4], 4.84 ± 0.076.
As for DDEQYAWESSAGGSFTVRADHGEP [HSP90AB1], the protein stability index runs as follows: under setting [3], 5.14 ± 0.29; under setting [4], 5.07 ± 0.12.
In the case of DDISVDSLDFTKKILHTAWHPAEN [PPP2R2C], the protein stability index under setting [3] was found to be 3.12 ± 0.36 and the protein stability index under setting [4] worked out at 3.12 ± 0.49.
